Patent EP4574844A1 (Numab Therapeutics AG, dated 2025)
Where two headings read alike, the source gives them in different places.

Assays:
[1] = target: T1, human LILRB2 on the cell surface (human, UniProt Q8N423 22-597); test: positive control of the LILRB2 ligand-blocking flow cytometry assay
T1 construct: whole, on cells; also called CHO K1 cells expressing human LILRB2; LILRB2 on HMDMs

[2] = target: T2, human CD47 on the cell surface (human, UniProt Q08722 19-323); test: flow cytometry, NCI-H292 cells; competitor biotinylated SIRPα; by the text maximum inhibition normalised to PRO2777
T2 construct: whole, on cells; also called plasma membranous CD47; CHO CD47 cells

[3] = target: T2, human CD47 on the cell surface; test: flow cytometry, NCI-H292 cells (CD47+ PD-L1+); competitor biotinylated SIRPα; column head prints EC50
[4] = target: T2, human CD47 on the cell surface; test: flow cytometry, HT-29 cells (CD47+, no PD-L1)
[5] = target: T3, human PD-L1 on the cell surface (human, UniProt Q9NZQ7 19-290); test: cell-based or functional assay
[6] = target: T2, human CD47 on the cell surface; test: cell-based or functional assay
[7] = target: T2, human CD47 on the cell surface; test: flow cytometry, human erythrocytes
[8] = target: T4, recombinant human PDL1 (human, UniProt Q9NZQ7 19-238, limits assumed); test: SPR, antigen immobilised, antibody as analyte
T4 construct: SPR antigen; also called CD274; B7-H1

[9] = target: T5, recombinant human CD47 (human, UniProt Q08722 19-139, limits assumed); test: SPR, antigen immobilised, antibody as analyte
[10] = target: T2, human CD47 on the cell surface; test: flow cytometry, CHO CD47 cells; competitor biotinylated SIRPα; by the text maximum inhibition normalised to PRO2777
[11] = target: T2, human CD47 on the cell surface; test: flow cytometry, CHO CD47 cells; competitor biotinylated SIRPα; column head prints EC50
[12] = target: T3, human PD-L1 on the cell surface; test: cell-based or functional assay; remark: listed apart in the source
[13] = target: T6, LILRA5 on transiently transfected CHO cells (UniProt A6NI73 42-299); test: CELISA, transiently transfected CHO cells
T6 construct: whole, on cells; V5 tag at the N-terminus

[14] = target: T7, LILRA1 on transiently transfected CHO cells (UniProt O75019 17-489, limits assumed); test: CELISA, transiently transfected CHO cells
T7 construct: whole, on cells; V5 tag at the N-terminus

[15] = target: T8, LILRA6 on transiently transfected CHO cells (UniProt Q6PI73 24-481); test: CELISA, transiently transfected CHO cells
T8 construct: whole, on cells; V5 tag at the N-terminus

[16] = target: T9, LILRB1 on transiently transfected CHO cells (UniProt Q8NHL6 24-650); test: CELISA, transiently transfected CHO cells
T9 construct: whole, on cells; V5 tag at the N-terminus

[17] = target: T10, LILRB4 on transiently transfected CHO cells (UniProt Q8NHJ6 22-448); test: CELISA, transiently transfected CHO cells
T10 construct: whole, on cells; V5 tag at the N-terminus

[18] = target: T11, LILRA3 on transiently transfected CHO cells (UniProt Q8N6C8 24-439); test: CELISA, transiently transfected CHO cells
T11 construct: whole, on cells; V5 tag at the N-terminus

[19] = target: T12, LILRB5 on transiently transfected CHO cells (UniProt O75023 24-590, limits assumed); test: CELISA, transiently transfected CHO cells
T12 construct: whole, on cells; V5 tag at the N-terminus

[20] = target: T13, LILRA4 on transiently transfected CHO cells (UniProt P59901 24-499); test: CELISA, transiently transfected CHO cells
T13 construct: whole, on cells; V5 tag at the N-terminus

[21] = target: T14, LILRA2 on transiently transfected CHO cells (UniProt Q8N149 24-483); test: CELISA, transiently transfected CHO cells
T14 construct: whole, on cells; V5 tag at the N-terminus

[22] = target: T15, LILRB3 on transiently transfected CHO cells (UniProt O75022 24-631, limits assumed); test: CELISA, transiently transfected CHO cells
T15 construct: whole, on cells; V5 tag at the N-terminus

[23] = target: T1, human LILRB2 on the cell surface; test: cell-based or functional assay
[24] = target: T1, human LILRB2 on the cell surface; test: cell-based or functional assay; remark: listed apart in the source
[25] = target: T16, LILRB2 (Q8N423-2) on transiently transfected CHO cells (UniProt Q8N423-2 22-597); test: CELISA, transiently transfected CHO cells
T16 construct: whole, on cells

[26] = target: T4, recombinant human PDL1; test: SPR, antigen immobilised, antibody as analyte; remark: listed apart in the source
[27] = target: T5, recombinant human CD47; test: SPR, antigen immobilised, antibody as analyte; remark: listed apart in the source
[28] = target: T3, human PD-L1 on the cell surface; test: cell-based or functional assay; remark: listed apart in the source
[29] = target: T2, human CD47 on the cell surface; test: cell-based or functional assay; remark: listed apart in the source

T1 sequence (Q8N423 22-597): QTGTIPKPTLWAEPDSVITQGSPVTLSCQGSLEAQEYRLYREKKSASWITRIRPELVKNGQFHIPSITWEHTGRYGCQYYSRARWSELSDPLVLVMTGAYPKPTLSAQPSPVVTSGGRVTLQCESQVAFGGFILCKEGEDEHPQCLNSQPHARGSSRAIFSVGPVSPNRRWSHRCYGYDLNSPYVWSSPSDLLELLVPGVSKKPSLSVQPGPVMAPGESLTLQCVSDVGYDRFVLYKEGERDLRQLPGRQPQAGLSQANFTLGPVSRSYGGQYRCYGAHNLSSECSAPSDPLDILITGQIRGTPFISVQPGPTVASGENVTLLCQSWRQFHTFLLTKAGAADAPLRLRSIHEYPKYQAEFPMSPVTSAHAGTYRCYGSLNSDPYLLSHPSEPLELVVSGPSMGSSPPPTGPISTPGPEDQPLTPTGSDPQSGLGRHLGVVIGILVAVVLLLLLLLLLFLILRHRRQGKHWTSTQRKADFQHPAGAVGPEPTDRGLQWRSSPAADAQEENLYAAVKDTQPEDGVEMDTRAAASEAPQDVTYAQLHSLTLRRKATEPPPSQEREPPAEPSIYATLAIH
T6 sequence (A6NI73 42-299): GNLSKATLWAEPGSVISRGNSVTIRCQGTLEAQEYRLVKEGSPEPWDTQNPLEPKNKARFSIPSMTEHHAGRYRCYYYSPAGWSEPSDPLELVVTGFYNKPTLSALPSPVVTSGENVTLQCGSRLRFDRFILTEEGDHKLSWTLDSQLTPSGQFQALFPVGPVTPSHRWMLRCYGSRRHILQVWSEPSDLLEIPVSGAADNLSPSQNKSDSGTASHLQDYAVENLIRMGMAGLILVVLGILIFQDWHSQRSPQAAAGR
T12 sequence (O75023 24-590 limits assumed): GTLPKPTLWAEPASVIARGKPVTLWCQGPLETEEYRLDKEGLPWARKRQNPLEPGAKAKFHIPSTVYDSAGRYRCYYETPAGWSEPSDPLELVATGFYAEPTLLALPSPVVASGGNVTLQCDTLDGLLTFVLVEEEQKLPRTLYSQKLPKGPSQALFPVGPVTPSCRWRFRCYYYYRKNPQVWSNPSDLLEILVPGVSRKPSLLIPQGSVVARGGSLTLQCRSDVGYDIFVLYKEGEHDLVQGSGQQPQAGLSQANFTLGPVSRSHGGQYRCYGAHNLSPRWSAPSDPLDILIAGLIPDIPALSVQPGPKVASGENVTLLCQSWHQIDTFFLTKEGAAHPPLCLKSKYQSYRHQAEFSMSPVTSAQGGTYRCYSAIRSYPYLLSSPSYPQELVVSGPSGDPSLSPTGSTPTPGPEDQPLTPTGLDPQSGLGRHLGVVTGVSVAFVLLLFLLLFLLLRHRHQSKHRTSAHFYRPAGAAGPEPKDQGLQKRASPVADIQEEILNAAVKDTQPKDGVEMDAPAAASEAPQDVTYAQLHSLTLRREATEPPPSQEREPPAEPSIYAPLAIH
T14 sequence (Q8N149 24-483): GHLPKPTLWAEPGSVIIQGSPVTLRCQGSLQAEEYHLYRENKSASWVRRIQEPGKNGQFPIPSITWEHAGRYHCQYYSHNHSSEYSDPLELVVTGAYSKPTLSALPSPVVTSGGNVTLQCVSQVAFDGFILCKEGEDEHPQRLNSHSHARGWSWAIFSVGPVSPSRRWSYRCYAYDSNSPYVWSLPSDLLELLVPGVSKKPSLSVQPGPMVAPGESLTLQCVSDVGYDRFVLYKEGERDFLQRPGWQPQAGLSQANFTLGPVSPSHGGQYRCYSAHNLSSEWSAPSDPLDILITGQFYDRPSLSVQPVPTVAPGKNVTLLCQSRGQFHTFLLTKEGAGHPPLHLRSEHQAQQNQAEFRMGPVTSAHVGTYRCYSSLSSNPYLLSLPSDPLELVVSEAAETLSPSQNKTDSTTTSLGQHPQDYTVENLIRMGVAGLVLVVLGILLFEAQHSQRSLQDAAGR
T9 sequence (Q8NHL6 24-650): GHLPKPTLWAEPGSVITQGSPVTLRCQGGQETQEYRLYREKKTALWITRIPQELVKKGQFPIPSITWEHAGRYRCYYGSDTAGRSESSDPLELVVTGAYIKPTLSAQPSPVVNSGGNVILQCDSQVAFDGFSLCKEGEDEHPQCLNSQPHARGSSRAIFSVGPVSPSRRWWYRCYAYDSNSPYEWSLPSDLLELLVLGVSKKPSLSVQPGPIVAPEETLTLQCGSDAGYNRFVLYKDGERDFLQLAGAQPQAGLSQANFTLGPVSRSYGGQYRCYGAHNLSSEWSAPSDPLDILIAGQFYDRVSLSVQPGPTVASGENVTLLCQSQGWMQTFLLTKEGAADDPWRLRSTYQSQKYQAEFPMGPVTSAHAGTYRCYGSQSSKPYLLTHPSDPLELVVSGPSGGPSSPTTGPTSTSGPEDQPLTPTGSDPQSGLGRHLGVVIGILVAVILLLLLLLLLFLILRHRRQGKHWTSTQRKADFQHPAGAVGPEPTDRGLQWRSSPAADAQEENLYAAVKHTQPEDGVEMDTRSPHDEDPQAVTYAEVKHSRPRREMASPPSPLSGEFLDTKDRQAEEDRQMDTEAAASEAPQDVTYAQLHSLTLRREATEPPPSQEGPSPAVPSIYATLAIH
T13 sequence (P59901 24-499): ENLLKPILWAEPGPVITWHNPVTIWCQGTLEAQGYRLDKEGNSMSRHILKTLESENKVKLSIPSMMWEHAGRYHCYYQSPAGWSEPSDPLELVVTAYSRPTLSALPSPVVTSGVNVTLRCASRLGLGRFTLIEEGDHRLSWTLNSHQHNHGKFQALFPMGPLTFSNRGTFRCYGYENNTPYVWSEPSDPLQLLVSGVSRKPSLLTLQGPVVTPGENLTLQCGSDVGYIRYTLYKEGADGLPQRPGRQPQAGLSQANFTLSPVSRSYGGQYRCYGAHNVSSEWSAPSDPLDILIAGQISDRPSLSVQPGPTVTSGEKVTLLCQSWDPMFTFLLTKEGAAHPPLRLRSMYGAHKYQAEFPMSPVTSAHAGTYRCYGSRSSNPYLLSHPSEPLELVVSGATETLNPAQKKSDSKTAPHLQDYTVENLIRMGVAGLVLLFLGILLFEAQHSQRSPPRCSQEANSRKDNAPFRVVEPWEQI
T7 sequence (O75019 17-489 limits assumed): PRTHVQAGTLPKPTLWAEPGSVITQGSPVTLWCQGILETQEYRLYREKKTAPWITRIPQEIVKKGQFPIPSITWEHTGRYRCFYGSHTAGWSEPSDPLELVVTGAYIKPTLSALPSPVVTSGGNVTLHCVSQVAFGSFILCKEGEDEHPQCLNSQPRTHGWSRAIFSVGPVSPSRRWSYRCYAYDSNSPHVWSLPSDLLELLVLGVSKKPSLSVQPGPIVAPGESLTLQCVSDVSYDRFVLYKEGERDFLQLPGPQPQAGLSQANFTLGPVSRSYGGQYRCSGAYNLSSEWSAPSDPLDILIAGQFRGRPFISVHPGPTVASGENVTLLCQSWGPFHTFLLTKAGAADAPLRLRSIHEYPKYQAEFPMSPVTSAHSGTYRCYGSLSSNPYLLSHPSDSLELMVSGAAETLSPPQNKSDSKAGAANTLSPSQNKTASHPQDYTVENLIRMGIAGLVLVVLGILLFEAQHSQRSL
T8 sequence (Q6PI73 24-481): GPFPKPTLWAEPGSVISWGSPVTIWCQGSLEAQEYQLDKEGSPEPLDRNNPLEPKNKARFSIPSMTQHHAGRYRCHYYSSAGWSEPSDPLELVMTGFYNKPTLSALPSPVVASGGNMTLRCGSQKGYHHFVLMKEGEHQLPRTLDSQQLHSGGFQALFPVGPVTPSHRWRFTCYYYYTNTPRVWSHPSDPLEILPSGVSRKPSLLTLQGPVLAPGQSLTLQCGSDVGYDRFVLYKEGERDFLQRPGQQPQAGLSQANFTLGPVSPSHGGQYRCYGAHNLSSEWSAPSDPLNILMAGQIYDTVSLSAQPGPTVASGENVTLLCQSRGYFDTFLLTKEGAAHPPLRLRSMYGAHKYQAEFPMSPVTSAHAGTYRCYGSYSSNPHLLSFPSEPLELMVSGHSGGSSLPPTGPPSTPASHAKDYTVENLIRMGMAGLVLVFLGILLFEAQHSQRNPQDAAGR
T11 sequence (Q8N6C8 24-439): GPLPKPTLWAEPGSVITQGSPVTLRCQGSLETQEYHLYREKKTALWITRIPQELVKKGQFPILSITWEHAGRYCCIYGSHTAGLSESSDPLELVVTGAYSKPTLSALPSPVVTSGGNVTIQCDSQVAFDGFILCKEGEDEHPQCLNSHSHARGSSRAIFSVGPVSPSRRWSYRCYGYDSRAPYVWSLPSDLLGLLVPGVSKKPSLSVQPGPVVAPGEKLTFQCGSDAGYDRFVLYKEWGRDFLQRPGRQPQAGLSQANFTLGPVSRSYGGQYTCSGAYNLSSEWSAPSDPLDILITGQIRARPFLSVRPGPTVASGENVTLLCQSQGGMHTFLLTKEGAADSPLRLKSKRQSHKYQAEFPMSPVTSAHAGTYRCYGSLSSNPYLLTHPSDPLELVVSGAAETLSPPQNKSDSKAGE
T16 sequence (Q8N423 22-597, one chain of several): as the sequence (Q8N423 22-597) above

B1: PRO2518 (antibody, human IgG4 S228P, kappa, V domains shown)
VH: QITLKESGPTLVKPTQTLTLTCTFSGFSLNTYAMGVSWIRQPPGKALEWLASIWWNGNKYNNPSLKSRLTVTKDTSKNQVVLTMTNMDPVDTATYYCAHSRIIRFTDYVMDAWGQGTLVTVSS
VL: DIQMTQSPSSLSTSVGDRVTITCRASEDIYNDLAWYQQKPGKAPKLLIYNANSLHTGVASRFSGSGSGTDFTFTISSLQPEDVATYFCQQYYDYPLTFGQGTKLEIKR
notes: also called J19.H1; J-19
- binding result [1]: binds

B2: PRO3790 (bispecific antibody, human IgG1, kappa)
chain: DVQMTQSPSSLSASVGDRVTITCQASQSISSWVSWYQQKPGKPPKLLIYRGGYLESGVPSRFSASGSGTDFTLTISSLQPEDFATYYCQSTDSSTYGGAFGCGTKVTVLGGGGGSGGGGSGGGGSGGGGSQQVVESGGGLVQPGGSLRLSCAVSGIDLNSYAMTWVRQAPGKCLEWIGYIGSASSTYYASWASGRFTISKDNSKNTVYLQMNSLRAEDSAVYFCARGSTYINIWGQGTLVKVSSEPKSSDKTHTCPPCPAPELLGGPSVFLFPPKPKDTLMISRTPEVTCVVVDVSHEDPEVKFNWYVDGVEVHNAKTKPREEQYNSTYRVVSVLTVLHQDWLNGKEYKCKVSNKALPAPIEKTISKAKGQPREPQVYTLPPCREEMTKNQVSLSCAVKGFYPSDIAVEWESNGQPENNYKTTPPVLDSDGSFFLVSKLTVDKSRWQQGNVFSCSVMHEALHNHYTQKSLSLSPGK
heavy: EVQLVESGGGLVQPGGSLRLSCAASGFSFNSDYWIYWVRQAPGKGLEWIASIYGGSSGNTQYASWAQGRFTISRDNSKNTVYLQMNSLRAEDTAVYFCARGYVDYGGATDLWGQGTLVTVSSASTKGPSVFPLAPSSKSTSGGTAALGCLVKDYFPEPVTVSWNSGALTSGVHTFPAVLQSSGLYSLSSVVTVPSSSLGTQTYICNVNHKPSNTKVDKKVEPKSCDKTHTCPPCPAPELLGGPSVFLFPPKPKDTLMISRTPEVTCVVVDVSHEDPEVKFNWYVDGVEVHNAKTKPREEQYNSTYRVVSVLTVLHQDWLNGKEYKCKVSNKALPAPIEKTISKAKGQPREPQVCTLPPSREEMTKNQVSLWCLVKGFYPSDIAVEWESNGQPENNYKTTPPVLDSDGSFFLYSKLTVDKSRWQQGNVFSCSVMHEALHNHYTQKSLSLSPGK
light: DIQMTQSPASLSASVGDRVTITCQASQSIGTYLAWYQQKPGKPPKLLIYRAFILASGVPSRFSGSGSGTDFTLTISSLQPEDFATYYCQSNFYSDSTTIGPNAFGQGTKVEIKRTVAAPSVFIFPPSDEQLKSGTASVVCLLNNFYPREAKVQWKVDNALQSGNSQESVTEQDSKDSTYSLSSTLTLSKADYEKHKVYACEVTHQGLSSPVTKSFNRGEC
notes: anti-CD47 x PDL1: 70-26-B04-sc03 scFv on hole-Fc, 37-20-B03-sc09.1 Fab on knob-Fc
- Rel. maximum binding (max. MFI sample / max. MFI magrolimab) [2]: 92.5
- IC50 [3]: 0.068 nM
- EC50 [4]: > 100 nM
- PD-L1 driven EC50 [nM], phagocytosis of H292 cells [5]: 0.04 nM
- CD47 driven EC50 [nM], phagocytosis of H292 cells [6]: 31.2 nM
- EC50 [7]: 98.8 nM
- Kd [8]: 0.0759 nM
- koff [8]: 4.19e-05 s⁻¹
- kon [8]: 552000 M⁻¹ s⁻¹
- Kd [9]: 35 nM
- koff [9]: 0.0235 s⁻¹
- kon [9]: 672000 M⁻¹ s⁻¹
- Rel. maximum binding (max. MFI sample / max. MFI magrolimab) [10]: 87
- IC50 [11]: 110 nM
- EC50 [nM], PD-L1 / PD-1 transgenic NFAT reporter gene assay [12]: 0.272 nM

B3: PRO4710 (antibody, human IgG4 S228P, kappa, V domains shown)
VH: QQLVESGGGLVQPGGSLRLSCAASGFSFTNNYYMCWVRQAPGKGLEWIACMLVGAWGNTYYASWANGRFTISKDNSKNTVYLQMNSLRAEDTAVYFCARARDYTWTLGGDPETSGFNLWGQGTLVTVSS
VL: DVQMTQSPSSLSASVGDRVTITCQASQSIGSNLAWYQQKPGKPPKLLIYKGGTLESGVPSRFSGSGSGTDFTLTISSLQPEDFATYYCQSTAGSSRSGNYGYVFGQGTKVEIKR
notes: anti-LILRB2 IgG4; also called 68-18-E11-sc07 IgG4; IgG4 variant of scFv PRO3744
- binding result [13]: no binding (tested: up to 100 nM)
- binding result [14]: no binding (tested: up to 100 nM)
- binding result [15]: no binding (tested: up to 100 nM)
- binding result [16]: no binding (tested: up to 100 nM)
- binding result [17]: no binding (tested: up to 100 nM)
- binding result [18]: no binding (tested: up to 100 nM)
- binding result [19]: no binding (tested: up to 100 nM)
- binding result [20]: no binding (tested: up to 100 nM)
- binding result [21]: no binding (tested: up to 100 nM)
- binding result [22]: no binding (tested: up to 100 nM)
- IL-1β EC50 [nM], LPS-driven cytokine secretion [23]: 0.248 nM
- IL-6 EC50 [nM], LPS-driven cytokine secretion [23]: 0.153 nM
- TNF-α EC50 [nM], LPS-driven cytokine secretion [23]: 0.169 nM
- CD86 EC50 [nM], re-polarization of M2 macrophages [24]: 0.119 nM
- CD163 EC50 [nM], re-polarization of M2 macrophages [24]: 0.072 nM
- CD206 EC50 [nM], re-polarization of M2 macrophages [24]: 0.203 nM

B4: PRO3635 (antibody, human IgG4 S228P, kappa, V domains shown)
VH: QQLVESGGGRVQPGGSLRLSCAASGFSFTNNYYMCWVRQAPGKGLEWIACMLVGAWGNTYYASWANGRFTISKDNSKNTVYLQMNSLRAEDTATYFCARARDYTWTLGGDPETSGFNLWGQGTQVTVSS
VL: DVQMTQSPSSLSASVGDRVTITCQASQSIGSNLAWYQQKPGKPPKLLIYKASTLESGVPSRFSGSGSGTDFTLTISSLQPEDFATYYCQSTAGSSRSGNYGYVFGQGTKVEIKR
notes: anti-LILRB2 IgG4; also called 68-18-E11-sc02 IgG4; IgG variant of scFv PRO3064
- binding result [13]: no binding (tested: up to 100 nM)
- binding result [14]: no binding (tested: up to 100 nM)
- binding result [15]: no binding (tested: up to 100 nM)
- binding result [16]: no binding (tested: up to 100 nM)
- binding result [17]: no binding (tested: up to 100 nM)
- binding result [18]: no binding (tested: up to 100 nM)
- binding result [19]: no binding (tested: up to 100 nM)
- binding result [20]: no binding (tested: up to 100 nM)
- binding result [21]: no binding (tested: up to 100 nM)
- binding result [25]: binds
- binding result [22]: no binding (tested: up to 100 nM)

B5: PRO5053 (antibody)
chain 1: DVQMTQSPSSLSASVGDRVTITCQASQSISSWVSWYQQKPGKPPKLLIYRGGYLESGVPSRFSASGSGTDFTLTISSLQPEDFATYYCQSTDSSTYGGAFGCGTKVTVLGGGGGSGGGGSGGGGSGGGGSQQVVESGGGLVQPGGSLRLSCAVSGIDLNSYAMTWVRQAPGKCLEWIGYIGSASSTYYASWASGRFTISKDNSKNTVYLQMNSLRAEDSAVYFCARGSTYINIWGQGTLVKVSSEPKSSDKTHTCPPCPAPELLGGPSVFLFPPKPKDTLMISRTPEVTCVVVDVSHEDPEVKFNWYVDGVEVHNAKTKPREEQYNSTYRVVSVLTVLHQDWLNGKEYKCKVSNKALPAPIEKTISKAKGQPREPQVYTLPPCREEMTKNQVSLSCAVKGFYPSDIAVEWESNGQPENNYKTTPPVLDSDGSFFLVSKLTVDKSRWQQGNVFSCSVMHEALHNHYTQKSLSLSPGKGGGGSGGGGSDIQMTQSPSSLSASVGDRVTITCQSSESVYSNNQLSWYQQKPGQPPKLLIYDASDLASGVPSRFSGSGSGTDFTLTISSLQPEDFATYYCAGGFSSSSDTAFGCGTKLTVLGGGGGSGGGGSGGGGSGGGGSEVQLVESGGGLVQPGGSLRLSCAASGFSLSSNAMGWVRQAPGKCLEYIGIISVGGFTYYASWAKGRFTISRDNSKNTVYLQMNSLRAEDSATYFCARDRHGGDSSGAFYLWGQGTLVKVSS
chain 2: not shown
notes: anti-PDL1 x CD47 x (hSA dummy domain); also called PRO5052 with dummy domain for LILRB2-BD
- PD-L1 driven EC50 [nM], phagocytosis of H292 cells [5]: 0.19 nM
- CD47 driven EC50 [nM], phagocytosis of H292 cells [6]: 28.2 nM
- Kd [26]: 0.0133 nM
- koff [26]: 2.72e-05 s⁻¹
- kon [26]: 2.05e+06 M⁻¹ s⁻¹
- Kd [27]: 49.7 nM
- koff [27]: 0.0265 s⁻¹
- kon [27]: 533000 M⁻¹ s⁻¹
- PD-L1 driven EC50 [nM], phagocytosis of H292 cells [28]: 0.18 nM
- CD47 driven EC50 [nM], phagocytosis of A375 cells [29]: 27.5 nM
- CD47 driven EC50 [nM], phagocytosis of H292 cells [29]: 28.4 nM
